Assay results taken from PMC8680157 (Nature, 2021).

Target: histone H4 (in the NCP), unmodified at K20 (human, UniProt P62805 1-103)
Assay: cryo-EM structure

B1: BARD1 (ARD–BRCT), residues 415–777, as tethered to the NCP in BARD1^AB–NCPub (domain or fragment)
chain: KLLPNMAVKRNHRGETLLHIASIKGDIPSVEYLLQNGSDPNVKDHAGWTPLHEACNHGHLKVVELLLQHKALVNTTGYQNDSPLHDAAKNGHVDIVKLLLSYGASRNAVNIFGLRPVDYTDDESMKSLLLLPEKNESSSASHCSVMNTGQRRDGPLVLIGSGLSSEQQKMLSELAVILKAKKYTEFDSTVTHVVVPGDAVQSTLKCMLGILNGCWILKFEWVKACLRRKVCEQEEKYEIPEGPRRSRLNREQLLPKLFDGCYFYLWGTFKHHPKDNLIKLVTAGGGQILSRKPKPDSDVTQTINTVAYHARPDSDQRFCTQYIIYEDLCNYHPERVRQGKVWKAPSSWFIDCVMSFELLPLDS
binding result: binds
